± gives the standard deviation of the averaged measurements.
Assay: total protein half-life in vivo (active degradation + dilution); higher = more stable protein
[1] = E. coli NCM3722 delta-hslV, growth: N-lim chemostat, doubling time 6 h
[2] = E. coli NCM3722 delta-smpB, growth: N-lim chemostat, doubling time 6 h
[3] = wild type E. coli NCM3722, growth: C-lim chemostat, doubling time 6 h
[4] = wild type E. coli NCM3722, growth: C-lim chemostat, doubling time 12 h
[5] = wild type E. coli NCM3722, growth: N-lim chemostat, doubling time 6 h
[6] = wild type E. coli NCM3722, growth: N-lim chemostat, doubling time 12 h
[7] = wild type E. coli NCM3722, growth: P-lim chemostat, doubling time 6 h
[8] = wild type E. coli NCM3722, growth: P-lim chemostat, doubling time 12 h
[9] = E. coli NCM3722 delta-clpP delta-lon delta-hslV, growth: N-lim chemostat, doubling time 6 h
[10] = E. coli NCM3722 delta-clpP, growth: N-lim chemostat, doubling time 6 h
[11] = E. coli NCM3722 delta-lon, growth: N-lim chemostat, doubling time 6 h
[12] = wild type E. coli NCM3722, growth: C-lim chemostat, doubling time 3 h

MFKKSVLFATLLSGVMAFSTNADDKIILKHISVSSVSASPTVLEDTIADIARKYNASSWKVTSMRIDNNSTATAVLYK
total protein half-life in vivo [1]: 5.17 ± 1.6 h
total protein half-life in vivo [2]: 6.02 ± 0.31 h
total protein half-life in vivo [3]: 3.54 ± 0.083 h
total protein half-life in vivo [4]: 6.51 ± 5.1 h
total protein half-life in vivo [5]: 3.93 h
total protein half-life in vivo [6]: 9.35 ± 3.8 h
total protein half-life in vivo [7]: 5.33 h
total protein half-life in vivo [8]: 11.5 h

MFKNAFANLQKVGKSLMLPVSVLPIAGILLGVGSANFSWLPAVVSHVMAEAGGSVFANMPLIFAIGVALGFTNNDGVSALAAVVAYGIMVKTMAVVAPLVLHLPAEEIASKHLADTGVLGGIISGAIAAYMFNRFYRIKLPEYLGFFAGKRFVPIISGLAAIFTGVVLSFIWPPIGSAIQTFSQWAAYQNPVVAFGIYGFIERCLVPFGLHHIWNVPFQMQIGEYTNAAGQVFHGDIPRYMAGDPTAGKLSGGFLFKMYGLPAAAIAIWHSAKPENRAKVGGIMISAALTSFLTGITEPIEFSFMFVAPILYIIHAILAGLAFPICILLGMRDGTSFSHGLIDFIVLSGNSSKLWLFPIVGIGYAIVYYTIFRVLIKALDLKTPGREDATEDAKATGTSEMAPALVAAFGGKENITNLDACITRLRVSVADVSKVDQAGLKKLGAAGVVVAGSGVQAIFGTKSDNLKTEMDEYIRNH
total protein half-life in vivo [9]: 6.96 ± 0.44 h
total protein half-life in vivo [10]: 6.21 ± 0.099 h
total protein half-life in vivo [1]: 6.68 ± 1.2 h
total protein half-life in vivo [11]: 6.75 ± 0.38 h
total protein half-life in vivo [2]: 6.19 ± 0.17 h
total protein half-life in vivo [12]: 3.54 ± 0.097 h
total protein half-life in vivo [3]: 6.88 ± 0.64 h
total protein half-life in vivo [4]: 13.4 ± 2.5 h
total protein half-life in vivo [5]: 5.92 ± 0.44 h
total protein half-life in vivo [6]: 11.8 ± 0.38 h
total protein half-life in vivo [7]: 5.86 ± 0.2 h
total protein half-life in vivo [8]: 11.7 ± 1.6 h

MFKPHVTVACVVHAEGKFLVVEETINGKALWNQPAGHLEADETLVEAAARELWEETGISAQPQHFIRMHQWIAPDKTPFLRFLFAIELEQICPTQPHDSDIDCCRWVSAEEILQASNLRSPLVAESIRCYQSGQRYPLEMIGDFNWPFTKGVI [P0AEI6]
total protein half-life in vivo [9]: 4.74 ± 0.38 h
total protein half-life in vivo [10]: 4.42 ± 0.56 h
total protein half-life in vivo [1]: 4.45 h
total protein half-life in vivo [11]: 4.69 ± 0.34 h
total protein half-life in vivo [2]: 4.929 ± 0.049 h
total protein half-life in vivo [3]: 5.3 ± 0.12 h
total protein half-life in vivo [4]: 11.6 ± 1.9 h
total protein half-life in vivo [5]: 4.54 ± 0.27 h
total protein half-life in vivo [6]: 6.249 ± 0.042 h
total protein half-life in vivo [7]: 5.49 ± 0.18 h
total protein half-life in vivo [8]: 11.12 ± 0.055 h

MFLAQEIIRKKRDGHALSDEEIRFFINGIRDNTISEGQIAALAMTIFFHDMTMPERVSLTMAMRDSGTVLDWKSLHLNGPIVDKHSTGGVGDVTSLMLGPMVAACGGYIPMISGRGLGHTGGTLDKLESIPGFDIFPDDNRFREIIKDVGVAIIGQTSSLAPADKRFYATRDITATVDSIPLITASILAKKLAEGLDALVMDVKVGSGAFMPTYELSEALAEAIVGVANGAGVRTTALLTDMNQVLASSAGNAVEVREAVQFLTGEYRNPRLFDVTMALCVEMLISGKLAKDDAEARAKLQAVLDNGKAAEVFGRMVAAQKGPTDFVENYAKYLPTAMLTKAVYADTEGFVSEMDTRALGMAVVAMGGGRRQASDTIDYSVGFTDMARLGDQVDGQRPLAVIHAKDENNWQEAAKAVKAAIKLADKAPESTPTVYRRISE
total protein half-life in vivo [9]: 5.35 ± 0.43 h
total protein half-life in vivo [10]: 5.92 ± 0.45 h
total protein half-life in vivo [1]: 5.18 ± 0.25 h
total protein half-life in vivo [11]: 5.58 ± 0.26 h
total protein half-life in vivo [2]: 5.29 ± 0.068 h
total protein half-life in vivo [12]: 3.127 ± 0.0038 h
total protein half-life in vivo [3]: 5.78 ± 0.25 h
total protein half-life in vivo [5]: 5.36 ± 0.13 h
total protein half-life in vivo [6]: 10.4 ± 1.3 h
total protein half-life in vivo [7]: 6.07 ± 0.16 h
total protein half-life in vivo [8]: 13.1 ± 1.6 h

MFPEYRDLISRLKNENPRFMSLFDKHNKLDHEIARKEGSDGRGYNAEVVRMKKQKLQLKDEMLKILQQESVKEV [P0ACW6]
total protein half-life in vivo [12]: 1.33 h
total protein half-life in vivo [3]: 1.87 ± 0.1 h
total protein half-life in vivo [4]: 1.75 h

MFRGATLVNLDSKGRLSVPTRYREQLLENAAGQMVCTIDIYHPCLLLYPLPEWEIIEQKLSRLSSMNPVERRVQRLLLGHASECQMDGAGRLLIAPVLRQHAGLTKEVMLVGQFNKFELWDETTWHQQVKEDIDAEQLATGDLSERLQDLSL
total protein half-life in vivo [9]: 7.01 ± 0.38 h
total protein half-life in vivo [10]: 6.48 ± 0.5 h
total protein half-life in vivo [1]: 6.33 ± 0.068 h
total protein half-life in vivo [11]: 6.98 ± 0.57 h
total protein half-life in vivo [2]: 5.69 ± 0.38 h
total protein half-life in vivo [12]: 3.22 ± 0.08 h
total protein half-life in vivo [3]: 6.14 ± 0.43 h
total protein half-life in vivo [4]: 12.19 ± 0.11 h
total protein half-life in vivo [5]: 5.98 ± 0.57 h
total protein half-life in vivo [6]: 12.9 ± 0.16 h
total protein half-life in vivo [7]: 6.8 ± 0.66 h
total protein half-life in vivo [8]: 14.04 ± 0.07 h

MFRLNPFVRVGLCLSAISCAWPVLAVDDDGETMVVTASSVEQNLKDAPASISVITQEDLQRKPVQNLKDVLKEVPGVQLTNEGDNRKGVSIRGLDSSYTLILVDGKRVNSRNAVFRHNDFDLNWIPVDSIERIEVVRGPMSSLYGSDALGGVVNIITKKIGQKWSGTVTVDTTIQEHRDRGDTYNGQFFTSGPLIDGVLGMKAYGSLAKREKDDPQNSTTTDTGETPRIEGFSSRDGNVEFAWTPNQNHDFTAGYGFDRQDRDSDSLDKNRLERQNYSVSHNGRWDYGTSELKYYGEKVENKNPGNSSPITSESNTVDGKYTLPLTAINQFLTVGGEWRHDKLSDAVNLTGGTSSKTSASQYALFVEDEWRIFEPLALTTGVRMDDHETYGEHWSPRAYLVYNATDTVTVKGGWATAFKAPSLLQLSPDWTSNSCRGACKIVGSPDLKPETSESWELGLYYMGEEGWLEGVESSVTVFRNDVKDRISISRTSDVNAAPGYQNFVGFETGANGRRIPVFSYYNVNKARIQGVETELKIPFNDEWKLSINYTYNDGRDVSNGENKPLSDLPFHTANGTLDWKPLALEDWSFYVSGHYTGQKRADSATAKTPGGYTIWNTGAAWQVTKDVKLRAGVLNLGDKDLSRDDYSYNEDGRRYFMAVDYRF
total protein half-life in vivo [12]: 3.86 ± 0.058 h
total protein half-life in vivo [6]: > 16 h
total protein half-life in vivo [8]: > 16 h

— the supplement of paper PMC11246515
